From patent US20220227882A1 (TRUSTEES OF TUFTS COLLEGE, published 2022)
Positions count from the first letter of the chain named.

Key:
A462S = molecular target: T1, A462S (Homo sapiens, UniProt P78325); test: high-throughput flow cytometry, HEK293 cells with mutant ADAM8, high stringency; range in parentheses
T1 construct: expressed on HEK293 cells; also called human ADAM8 point mutant A462S
T1 sequence (ADAM8, looked up): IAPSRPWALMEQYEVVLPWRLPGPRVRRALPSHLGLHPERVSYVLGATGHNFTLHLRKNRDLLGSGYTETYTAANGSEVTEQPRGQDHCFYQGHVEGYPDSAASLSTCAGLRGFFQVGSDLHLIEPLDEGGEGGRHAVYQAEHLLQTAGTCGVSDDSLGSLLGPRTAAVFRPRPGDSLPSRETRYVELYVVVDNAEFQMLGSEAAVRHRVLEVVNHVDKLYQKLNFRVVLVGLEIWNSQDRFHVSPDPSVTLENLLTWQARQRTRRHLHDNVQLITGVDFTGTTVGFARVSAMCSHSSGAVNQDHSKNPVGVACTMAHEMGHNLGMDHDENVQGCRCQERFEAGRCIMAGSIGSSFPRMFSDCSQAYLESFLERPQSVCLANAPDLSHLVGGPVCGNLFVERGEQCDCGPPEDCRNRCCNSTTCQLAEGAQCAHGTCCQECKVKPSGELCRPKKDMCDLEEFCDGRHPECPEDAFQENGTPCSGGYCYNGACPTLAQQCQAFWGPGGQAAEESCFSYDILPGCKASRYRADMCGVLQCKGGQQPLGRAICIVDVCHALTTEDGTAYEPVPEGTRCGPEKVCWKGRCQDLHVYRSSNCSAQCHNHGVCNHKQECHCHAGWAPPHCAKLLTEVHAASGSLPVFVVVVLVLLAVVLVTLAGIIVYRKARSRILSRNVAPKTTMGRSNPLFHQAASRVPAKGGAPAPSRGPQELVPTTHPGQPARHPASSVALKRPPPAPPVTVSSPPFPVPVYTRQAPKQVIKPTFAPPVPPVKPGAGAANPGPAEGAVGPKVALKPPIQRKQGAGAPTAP
Protocol: (§1) A variety of experimental parameters were optimized for high-throughput flow cytometry including blocking buffer, and primary and secondary antibody concentrations, to identify the optimal conditions for screening. Through these studies ADP2 and ADP13 were determined to be high affinity binding antibodies.
(§2) Thus, for these studies antigen-binding fragments (Fabs) of ADP2 and ADP13, which bind with lower affinity than the full antibody, were generated. In addition, higher binding stringency conditions were tested, such as increased pH, salinity, and temperature, and/or increased washing, to weaken binding sufficiently to allow identification of critical binding residues in flow cytometry. The final experimental flow cytometry conditions were: primary antibody incubation with ADP2 Fab (0.50 μg/ml), ADP13 Fab (5.00 μg/ml) and Control Ab (0.16 μg/ml) for 60 minutes in flow cytometry buffer containing 10% goat serum in PBS (Ca²⁺ and Mg²⁺ free). […] Samples were washed three times after primary antibody incubation and twice after secondary antibody incubation with PBS (Ca²⁺ and Mg′ free). Next, HEK293 cells expressing WT or mutated ADAM8 proteins or EV DNA were incubated with ADP2 or ADP13 Fabs or Control Ab at their optimal concentrations. Fab binding was detected using Alexa Fluor 488-conjugated secondary antibodies and mean cellular fluorescence determined using the Intellicyt iQue flow cytometry platform. […] This counter-screen strategy facilitates the exclusion of mutants that are locally misfolded or that have an expression defect. Binding of each test Fab to each mutant clone in the alanine scanning library was determined, in duplicate, by high-throughput flow cytometry.

Q447A = molecular target: T2, Q447A (Homo sapiens, UniProt P78325); test: as above
T2 construct: expressed on HEK293 cells; also called human ADAM8 point mutant Q447A
T2 sequence (ADAM8, looked up): T1 sequence (ADAM8, looked up) with Q431A, S446A
Protocol: as §1, §2

B1: ADP2 Fab (Fab, V domains shown)
VH: EVKLVESGGGLVQPGGSLSLSCAASGFSFPDYYMSWVRQPPGKALEWLGFIRDSANGYTTEYIASVKGRFTFSRDNSQSILYLQMNALRAEDSATYYCARYSRYYGMDYWGQGTSVTVSS
VL: SIVMTQTPKILLVSAGDRVTITCKASQTVNYDVAWYQQKPGQSPKPVIYFASNRYTGVPDRFTGSGFGTDFTFTISTVQAEDLAVYFCQQDYSAPWTFGGGTKLEIK
A462S
  Binding Reactivity (% WT): 50.1 % WT
Q447A
  Binding Reactivity (% WT): 46.5 % WT
